Key:
[1] = biological target: T1, Tau-derived peptide Tau401-418, not phosphorylated (T4.6) (human); assay: direct ELISA on plate-coated peptide (10 ug/mL), AP-conjugated anti-human IgG, O.D. at 405 nm
T1 construct: it is called the non-phosphorylated version of the same peptide as T4.5 (Tau401-418); also called corresponding non-phosphorylated Tau peptide
T1 peptide: GDTSPRHLSNVSSTGSID
Procedure: Binding of hACl-36-2B6-Ab1 and hACl-36-3A8-Ab1 to T4 Peptides by ELISA 1.1. Method 1.1.1 Phospho-Tau Binding Assay To test the binding of the antibody to pTau, an ELISA assay was used. Nunc MaxiSorp 96-well plates (Nunc, Denmark) were coated with 10 µg/mL of the Tau-derived peptide Tau401-418, phosphorylated (T4.5) or not (T4.6) on serine 409. Coating was done overnight in phosphate-buffered saline (PBS; Sigma-Aldrich, Switzerland) at 4° C. Plates were washed thoroughly with 0.05% Tween20/PBS and then blocked with 1% bovine serum albumin (BSA; Sigma-Aldrich) in 0.05% Tween20/PBS for 1 hr at 37° C. The supernatant containing the antibody being tested was then added in 8 two-fold dilutions, starting at 0.5 µg/mL, and incubated for 2 hr at 37° C. Plates were then washed as described previously, and an alkaline phosphatase (AP) conjugated goat anti-human IgG (Jackson ImmunoResearch Laboratories, England) was added at 1/2,000 dilution in 0.05% Tween20/PBS for 2 hr at 37° C. After washing, plates were incubated with p-nitrophenyl phosphate disodium hexahydrate (pNPP; Sigma-Aldrich, Switzerland) phosphatase substrate solution, and read at 405 nm following 1 hr incubation using a microplate reader (Tecan, Switzerland). Results are expressed as optical density (O.D.). […]

[2] = biological target: Tau-derived peptide Tau401-418, phosphorylated (T4.5) (human); assay: SPR (Biacore T100), antibody captured via Protein G on CM7 chip, peptide T4.5 as analyte 50-800 nM, single-cycle kinetics, 1:1 Langmuir fit
Sequence of Tau-derived peptide Tau401-418, phosphorylated (T4.5) (human) (peptide, as listed by the source): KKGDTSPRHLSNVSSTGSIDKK

B1: humanized antibody hACl-36-2B6-Ab1 (IgG4) (antibody, V domains shown)
VH: QVQLVQSGAEVKKPGSSVKVSCKASGYTFTDYYMNWVRQAPGQGLEWIGDINPNRGGTTYNQKFKGRVTITVDKSTSTAYMELSSLRSEDTAVYYCASYYAVGYWGQGTTVTVSS
VL: DIVMTQTPLSLPVTPGEPASISCRSSQSLVHSHGKTYLHWYLQKPGQSPQLLIYKVSNRFSGVPDRFSGSGSGTDFTLKISRVEAEDVGVYFCSQTAHFPYTFGGGTKVEIKR
notes: Humanized IgG4, kappa; also called 2B6A10C11
[1]
  binding result: no binding (tested: 0.5 ug/mL)
[2]
  Kd: 67 nM
  koff: 0.0036 s⁻¹
  kon: 54000 M⁻¹ s⁻¹

B2: humanized antibody hACl-36-3A8-Ab1 (IgG4) (antibody, V domains shown)
VH: QVQLVQSGAEVKKPGSSVKVSCKASGYTFTDYYMNWVRQAPGQGLEWIGDINPNRGGTTYNQKFKGRVTITVDKSTSTAYMELSSLRSEDTAVYYCASYYAVGYWGQGTTVTVSS
VL: DIVMTQTPLSLPVTPGEPASISCRSSQRLVHSHGKTYLHWYLQKPGQSPQLLIYKVSNRFSGVPDRFSGSGSGTDFTLKISRVEAEDVGVYFCSQTAHFPYTFGGGTKVEIKR
notes: Humanized IgG4, kappa; Tested as a supernatant containing the antibody; also called 3A8A12G7
[1]
  binding result: no binding (tested: 0.5 ug/mL)
